Values quoted from earlier work, collected in US20130337579.

Target: CRP (cited studies) (Escherichia coli) (UniProt P0ACJ8)
Test: EMSA
Details: CITED Fried 1984

Sequence of CRP (cited studies) (Escherichia coli) (P0ACJ8 2-210): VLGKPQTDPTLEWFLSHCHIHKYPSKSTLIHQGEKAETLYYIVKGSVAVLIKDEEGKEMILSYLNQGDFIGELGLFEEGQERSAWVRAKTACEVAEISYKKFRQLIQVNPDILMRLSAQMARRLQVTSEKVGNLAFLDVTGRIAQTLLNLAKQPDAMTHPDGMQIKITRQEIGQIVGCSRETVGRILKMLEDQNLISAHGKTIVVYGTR

## lac CRP oligo (Fried 1984)
200 nM cAMP
  Kd: 63 nM
5 uM cAMP
  Kd: 0.84 nM
